# From the supplement of paper PMC9170038
# Tested on: MS2 coat protein
# Experiment: apparent KD of MS2 coat protein; designed switch direction (-1 OFF switch, 1 ON switch): -1; higher = weaker reporter binding
# Outline: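 Transcription of designed RNA switches on Illumina chips was done by stalled E. coli RNA polymerase. SNAP-549-labelled MS2 coat protein was then titrated in doubling steps from 0.7 or 1.5 nM to 3 µM, with steps of 0.8–1.5 h at the lowest and 10–20 min at the highest concentration. The per-design median over clusters of curve-fitted normalised fluorescence is reported as apparent KD.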
# [1] = Eterna round: R95, input ligand: microRNA oligo, concentration not stated
# [2] = Eterna round: R95, input ligand: FMN 200 uM
# [3] = Eterna round: R95, input ligand: none
# [4] = input ligand: microRNA oligo, concentration not stated
Sequence,apparent KD of MS2 coat protein (input ligand: FMN 200 uM),apparent KD of MS2 coat protein (input ligand: none),apparent KD of MS2 coat protein [1],apparent KD of MS2 coat protein [2],apparent KD of MS2 coat protein [3],apparent KD of MS2 coat protein [4]
"AUCAGUCUAGAGGAUAUGCUGGAUUAAUAUCUGGCAGAAGGCUGGACAUGAGGAUCACCCAUGUAAAUACUACC [Omei Ex6 A4] (Eterna round: R97, puzzle: Exclusion 6)",156 nM,55 nM,–,–,–,–
CUGGUGUGAGGAUAUCAGGACACGUAAGCGGGCGUGUCAAAUGAGAAGGCACAUGAGGAUCACCCAUGUGGGAC [Atbeceesxe] (puzzle: Exclusion 4),–,–,27.8 nM,–,–,–
"GAUUAUGCGAGCUUUAGGGACAUGAGGAUCACCCAUGUUCGUCUUAUUAGUCUGGGUACGCUAACAUACCUAAAUCU [JMF 43] (puzzle: Sensor v3, turn-off variant 1)",–,–,41.4 nM,30.1 nM,28.7 nM,–
UUAGUGUGAGGAUAUGGUAAAGAUAAGAUGAUGAAAGAACUCCAGAAGGCACAUGAGGAUCACCCAUGUAGAUU [Mat - Exclusion 4 - Mod of JL - D25] (puzzle: Exclusion 4),–,–,24.2 nM,53.5 nM,24.2 nM,–
"GAUGGACAUGAGGAUCACCCAUGUAAGGAUAUUGAUUAUGGUUAUAAAUAAUUAUGGUCAAGAAGGUACUCGUC [-17.8, -14.8 kcal, A 34%] (Eterna round: R97, puzzle: Exclusion 1)",114 nM,147 nM,–,–,–,–
"ACAUGUGUUGUAGGAUAUAGGAUACAUGAGGAUCACCCAUGUGGAUUCAUGUCAAUGGAAACGUCCUAGAAGGACGACAACAUG [Ex NG2 #22] (Eterna round: R96, puzzle: Exclusion NG 2)",59.5 nM,65 nM,–,–,–,42.7 nM
"CUAGGGCGCAUUUAAACGCCCUAACAUGAGGAUCACCCAUGUCAGGAUAUGUAGGCAAAGACCCUACAGAAGGGACAUGUCCUA [Lainceso] (Eterna round: R96, puzzle: Exclusion NG 3)",264 nM,72.7 nM,–,–,–,57.1 nM
"AAUAAUGAUAAGGAUAUUACUAGCGAUAGCUAGUGAGAAGGUAUCACAUGAGGAUCACCCAUGUGUUCCAAUAA [Ex6/6-B4] (Eterna round: R97, puzzle: Exclusion 6)",70.1 nM,17.3 nM,–,–,–,–
"CGGAGCGUAGGUAGGUUCAACAUGAGGAUCACCCAUGUCUCACAAGCUUUUUGCUCAUCUUAUUGUACCUUGGUGCU [Sensor v3, turn-off variant 1 (MOD of JL )] (puzzle: Sensor v3, turn-off variant 1)",–,–,37.3 nM,117 nM,144 nM,–
AAAGCGUGAGGAUAUGAGGCGCCGGGCCGGUUGGUGCGGAUUCAGAAGGCACAUGAGGAUCACCCAUGUCGGUA [Excls4-IV] (puzzle: Exclusion 4),–,–,37.2 nM,–,–,–
GCAGGAUAAGUGAGGAUAUACCUAUGGAUACAUAGGUAGAAGGCACAUGAGGAUCACCCAUGUUCCUUGCCUGC [Fiskers BMX 4 - 67] (puzzle: Brourd's mod of Exclusion 4),–,–,13.2 nM,–,–,–
"UUUAAUUUUUUUUUUUUACAAGCUUUUUGCUCGUCUUAUACAUGAGGAUCACCCAUGUAGGUGGGAGGUAAAUUAUC [JMF 79] (puzzle: Sensor v3, turn-off variant 2)",–,–,116 nM,40.8 nM,43.8 nM,–
"CAGCUGAAUGUCAGGAUAUCUAGAGCCUCGGCUCUAGAGAAGGGACAUGAGGAUCACCCAUGUCACUCCAGCUG [BmEx4/3-B2] (Eterna round: R97, puzzle: Brourd's mod of Exclusion 4)",22.4 nM,17.8 nM,–,–,–,–
"AAAACGUCAGGAUAUACAGAAGAGAUCACAAAAAAAAAAAAACAUGAGGAUCACCCAUGUAGAAGGGACAAAAA [Ex2 Malc#2] (Eterna round: R96, puzzle: Exclusion 2)",185 nM,115 nM,–,–,–,81.2 nM
